Experimental data: the supplement of paper PMC12042874
± gives the uncertainty stated by the source.

Assay: amyloid nucleation score (Sup35N fusion, yeast selection) (log enrichment); library NNK3; higher = more nucleation; inactive = no reads after selection
How it was run: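 Random libraries were run with three technical output replicates. In each, psi-negative yeast expressing Sup35N fused to peptides of 20 random codons were induced 24 hours with 100 μM copper sulfate and grown 7 days at 30°C on medium lacking adenine and uracil, and input and output plasmid inserts were Illumina-sequenced. The nucleation score is the DiMSum log enrichment of output over input reads, centred on the mode score of non-aggregating sequences, and sequences under 100 input reads were excluded.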

Substance	amyloid nucleation score
LHGWFLNLLIFYAMRLRSVL	inactive
SKLHAE	inactive
WLFLLRPRAGSTHPSTHLDF	0.823 ± 0.1
NLLVLTDSVYIPLSHPYPNR	0.493 ± 0.22
SCVRVTSLGVNNTRFFDRSW	inactive
MHNRLVNDPACPVSTSSL	inactive
EHLRMCNLATIKLILLNVHP	inactive
TWKHFFIALLRRSNY	inactive
CNFNLILLMDGIKGSFL	2.35 ± 0.065
DAYREY	-0.557 ± 1.2
ALQYGNHRGCSYGCMITFVR	inactive
CNMSPKNFSIFSFVPNKPVG	inactive
KRSHY	inactive
YRLPHS	inactive
CYAGRLSETSNWLLLCVELE	inactive
FMVDTHFGNAFCFYMYCC	2.26 ± 0.051
RDDMGLESKQDGEP	inactive
KAVVLGEWTRSFCSLDFNI	inactive
HSLDRKYSWRI	inactive
FSRFSNAFPKNCWVLLVENS	inactive
GSSGENFVNYSKVTKSDLLY	inactive
VLNSIGPYVMTKR	0.139 ± 0.63
NRLYVKAELCSDAFRIVVAR	inactive

Substance	amyloid nucleation score
QFMYMFRARRTCGLNNGGQD	-0.689 ± 1.5
LRQNTYMLLSGNIVCRIVSF	inactive
IRSMGRPTRKLCEPGFSALE	inactive
KQADVFIIMSRVIGNRGCLF	inactive
GCYEGMLVIFLVFWLVVVYP	inactive
ILSSGLGKHTGLIIAYESAR	inactive
NDARAVGCTLRYKGLAIYSY	inactive
PDRLFLDTGSTWFKYMMSCL	-1.12 ± 1.4
MLNGVLNSKVPMNRRTSGNL	0.537 ± 0.13
CYVDVI	inactive
RLFRWMPDNVTGRWMVYAWF	inactive
HSIHSDNRVLWLFDWSLSSR	inactive
RYDMRVVSRNQLKYWTMGRE	-0.646 ± 1.1
IKCDLRSSVAWDLSVILYSF	inactive
PKCSIGKSLLVGRLMDVRAV	inactive
TLFWMSYWMRPSNIHCCVRM	inactive
WGWGCLCMWYICYSCVYRDR	0.708 ± 0.28
VNDVLIRKCLAMESNVNEAI	inactive
PSRRRMYADFHKATFPVRMG	inactive
RMINVSVR	inactive
FRLVGNIRTFYGYR	inactive
MNFMLTLFLWGM	inactive
ILSIHSGFCWWMRGALNGKL	1.45 ± 0.14

Substance	amyloid nucleation score
VWLHNFLVMKLSMRNFGWVR	inactive
CAYVENSCGTILVCALYCGS	inactive
RMPRQGLWMRVF	inactive
LYSETWEY	inactive
RMYACSWGKSDLSCLMSFGK	inactive
LSTIIHDFIGCCAVNAQLIG	inactive
VVLIFWWKSQGMSMIVFVIY	inactive
RLRVG	inactive
RVRDCSHRLLDIFVYLCGNT	inactive
YRRAWRTIILKCTCLNQHV	0.2 ± 0.42
IPERMRWVWEVTRAYNNYAW	inactive
TYFYAFALTVPYSWHSEDRM	2.04 ± 0.054
VLLPAGRIR	inactive
CLCFCCCSRVHYGTLFRNSA	2.98 ± 0.052
KTLIRASWSLSC	inactive
VMVRTNMCR	inactive
ASDTVTCFAYAVKGLRRASG	inactive
LVADSDRMNVTLRFTVSYCS	inactive
LLGLCRVLW	1.31 ± 0.097
CKLYHIIGLYLGVVVL	inactive
MCIHSITECRS	inactive
SSIWSGMSLFGFREIMSYVI	inactive
NIALFEILSSGIIVSNSNER	inactive

Substance	amyloid nucleation score
GTLISEVCIFQ	inactive
YACETVMSFVYMITFIRYLR	inactive
QWFHVSLS	inactive
SFRMSTSCWSSGALMYRLYR	inactive
FLLVFC	-0.021 ± 0.3
DTREN	inactive
RWLTVKPSRIRLWGCSWGLR	inactive
LDMFHSEIIFLMWYRGWVNA	inactive
YIITFGSMTCLVVTGNPAIV	-0.039 ± 0.66
MYVLLHTSQVL	inactive
RSARQHFPRNRGGNHSSDRV	0.204 ± 0.43
SVSSYAICVEACNYFRSRLV	inactive
SLGSCFSTCAVVHQRMKLGG	inactive
FLFLLWCNMMPEMYVIAMNI	inactive
ILHHTWYMF	inactive
AWSLVGMHAVNNFHLKQEFL	inactive
NIISR	-0.184 ± 0.81
VVFYTSGARDRICHMDVHRP	0.113 ± 0.69
YWLMKALQIWHSENRFRYIE	inactive
LRCTVRSLAKFVFYRFKTGG	inactive
IALTWDSVIYSTYLGVNFLT	0.627 ± 0.23
SWIVRLWCVMWNNLFVFIRN	inactive
RKVEG	inactive

Substance	amyloid nucleation score
ANGRN	inactive
CNIEGYNETNVCECWNMELL	inactive
LRRMDQMANDLFAI	inactive
TKSYFRINMFAVLDRCGLCR	inactive
SMSIYPVCLTF	inactive
FALSVVQG	inactive
TKSYPRTMFEPALALDMP	0.871 ± 0.26
RGGRTSVLLNRSMLVEK	inactive
RMKFGADIAVVHVCPMEFSG	inactive
RLTRVVIMQRFIGEVRLSAL	inactive
INIYSKELSNDGFSTLHYFM	inactive
CLFVCDYGLFECGQMVVEVY	inactive
SAACPWNWLDGASPPLRATA	inactive
FSYCSLWGKCVCDIFTNGQL	2.81 ± 0.051
MRDMIINMVSGETNGLCVKP	inactive
PFGVKSMLAVYTHYVFGATV	inactive
GGTAHNIGCVSRLVMPARGI	inactive
GIIMPKSRLVPTWTQSRSCC	inactive
SNFINVGSRLMTSWRGYAYM	inactive
RSVRFFVKMINFFASY	1.04 ± 0.15
LADFRGQSLTDEGCMWTSSG	inactive
IALSLLKTAKIMY	inactive
RHEVYSTANYHVCSCRFFIV	0.406 ± 0.17

Substance	amyloid nucleation score
MVVTKLRRDVISQSRISMGW	1.07 ± 0.1
LIYCYMFMITAVGRACMPCR	inactive
GFSYVVNYVFFTDVKNTAAL	2.17 ± 0.076
MRICFFDSIQHYQKNQD	2.1 ± 0.071
SFNRISIFYVNWCTAMNFVY	1.13 ± 0.093
LNTYQHFCIFMLSYALLSGH	-1.49 ± 2.5
VTVEALILNN	inactive
AHFFVCCALSDRCRLRDVLQ	inactive
IVVNT	inactive
QCVRSMLEELRIGYKVHRQS	inactive
SKCVGISLRALVYYGHSQVT	inactive
VRIMCMSWIVVWHYMC	inactive
SRSIMSVLACHRMCERGPIW	0.827 ± 0.19
CNIVSMFGCSGVMMACAAVV	inactive
LSGSRTRSRFPDCLNCIS	inactive
NKAIILHVM	inactive
PSNMRG	0.147 ± 0.34
RGRGAPCARFRNVYGMPFFY	inactive
VYIFLNEEPRVN	inactive
HVFCHVPNPCLVGSMLTLGD	inactive
RKNVELANPLFTSPWLNIMY	inactive
ILRFGHPWDRRSK	inactive
CAYRLNVGSVRFGKMHPRRS	inactive

Substance	amyloid nucleation score
GFFFSLFYWNHFRGMTRQRF	0.973 ± 0.2
VRFTHKCSLG	inactive
SYGHLQILKVMAIPSYAFPK	inactive
NMYGYADYYRAFRDSN	inactive
LIYYCEHHARLSVLLDESSA	inactive
CMQLVMSYTVCFVDGGVLA	inactive
RSHPKCHSSLLHSWK	inactive
FRASVPPEVLPKFARVGMNA	inactive
SQKGCRH	inactive
SDFHCTQKRNMVWEEIA	inactive
YKKVLLDSFYSDTWSSQGSR	inactive
WSMLPLKNTIAKQ	inactive
IDCLFRLAGYWSALWTFVLF	inactive
VIILMVIVLYNRVSFETFSV	inactive
SWRLYMMA	inactive
LLRFP	inactive
SMDTE	0.734 ± 0.17
DYITYVYYVSVRF	-0.124 ± 0.82
CDVPAKYLGKICDSYALSIF	inactive
RMTMRRSSWQVEGITSLRIL	inactive
SSYAYMRVCAFKVVEMVYWR	inactive
